Key:
[1] = molecular target: T1, E1E2 complex of HCV isolate H77 (genotype 1a), wild type (HCV isolate H77, UniProt P27958 192-383; P27958 384-746); assay: competition ELISA on H77 E1E2; competitor m39 (Fab N3)
[2] = molecular target: T2, vaccinia-expressed E1E2 complex, isolate HCV-1 (genotype 1a) (hepatitis C virus, isolate HCV-1, UniProt P26664 192-383; P26664 384-746); assay: competition ELISA on HCV-1 E1E2; competitor m33 (9/75)
[3] = molecular target: H77 E1E2 mutant P525A (HCV isolate H77, UniProt P27958 192-383; P27958 384-746); assay: ELISA, alanine mutant E1E2
[4] = molecular target: H77 E1E2 mutant N415A (HCV isolate H77, UniProt P27958 192-383; P27958 384-746); assay: ELISA, alanine mutant E1E2
[5] = molecular target: H77 E1E2 mutant R543A (HCV isolate H77, UniProt P27958 192-383; P27958 384-746); assay: ELISA, alanine mutant E1E2
[6] = molecular target: H77 E1E2 mutant I422A (HCV isolate H77, UniProt P27958 192-383; P27958 384-746); assay: ELISA, alanine mutant E1E2
[7] = molecular target: H77 E1E2 mutant L413A (HCV isolate H77, UniProt P27958 192-383; P27958 384-746); assay: ELISA, alanine mutant E1E2
[8] = molecular target: H77 E1E2 mutant V538A (HCV isolate H77, UniProt P27958 192-383; P27958 384-746); assay: ELISA, alanine mutant E1E2
[9] = molecular target: H77 E1E2 mutant T526A (HCV isolate H77, UniProt P27958 192-383; P27958 384-746); assay: ELISA, alanine mutant E1E2
[10] = molecular target: H77 E1E2 mutant F550A (HCV isolate H77, UniProt P27958 192-383; P27958 384-746); assay: ELISA, alanine mutant E1E2
[11] = molecular target: H77 E1E2 mutant W529A (HCV isolate H77, UniProt P27958 192-383; P27958 384-746); assay: ELISA, alanine mutant E1E2
[12] = molecular target: H77 E1E2 mutant P491A (HCV isolate H77, UniProt P27958 192-383; P27958 384-746); assay: ELISA, alanine mutant E1E2
[13] = molecular target: H77 E1E2 mutant N423A (HCV isolate H77, UniProt P27958 192-383; P27958 384-746); assay: ELISA, alanine mutant E1E2
[14] = molecular target: H77 E1E2 mutant H488A (HCV isolate H77, UniProt P27958 192-383; P27958 384-746); assay: ELISA, alanine mutant E1E2
[15] = molecular target: H77 E1E2 mutant W420A (HCV isolate H77, UniProt P27958 192-383; P27958 384-746); assay: ELISA, alanine mutant E1E2
[16] = molecular target: H77 E1E2 mutant Y489A (HCV isolate H77, UniProt P27958 192-383; P27958 384-746); assay: ELISA, alanine mutant E1E2
[17] = molecular target: H77 E1E2 mutant P544A (HCV isolate H77, UniProt P27958 192-383; P27958 384-746); assay: ELISA, alanine mutant E1E2
[18] = molecular target: H77 E1E2 mutant N417A (HCV isolate H77, UniProt P27958 192-383; P27958 384-746); assay: ELISA, alanine mutant E1E2
[19] = molecular target: H77 E1E2 mutant P545A (HCV isolate H77, UniProt P27958 192-383; P27958 384-746); assay: ELISA, alanine mutant E1E2
[20] = molecular target: H77 E1E2 mutant S419A (HCV isolate H77, UniProt P27958 192-383; P27958 384-746); assay: ELISA, alanine mutant E1E2
[21] = molecular target: H77 E1E2 mutant R483A (HCV isolate H77, UniProt P27958 192-383; P27958 384-746); assay: ELISA, alanine mutant E1E2
[22] = molecular target: T1, E1E2 complex of HCV isolate H77 …; assay: competition ELISA on H77 E1E2; competitor m40 (Fab N4)
[23] = molecular target: T1, E1E2 complex of HCV isolate H77 …; assay: competition ELISA on H77 E1E2; competitor m46 (Fab P4)
[24] = molecular target: T1, E1E2 complex of HCV isolate H77 …; assay: competition ELISA on H77 E1E2; competitor m43 (Fab P1a)
[25] = molecular target: T1, E1E2 complex of HCV isolate H77 …; assay: competition ELISA on H77 E1E2; competitor m45 (Fab P3)
[26] = molecular target: T2, vaccinia-expressed E1E2 complex, …; assay: competition ELISA on HCV-1 E1E2; competitor m23 (H53)

B1: MAb AR2A (antibody, V domains shown)
VH: LEQSGAEMKKPGASLKVSCKTSGYTFDDYGVTWVRQAPGQGLEWMGWISAYSGNTFYARKFQGRVTMTTDPSTRTAYMELRSLRSDDTAVYFCARDRGLAINGVVFPYFGLDVWGQGTTVTVSS
VL: ELTQSPVSLPVTPGEPASISCRSSQSLLHSNGNHYLDWYLQKPGQSPQLLMYLGSNRASGVPDRFSGSGSGTDFTLKISRVEAEDVGVYYCMQGLQTPWTFGQGTKVEIKR
notes: also called IgG1 of Fab G
With B1 the “% residual binding” value [1] was 69%, the “% residual binding” value [2] was 82% and the “binding vs wild-type E1E2” value [3] was 109%. The “binding vs wild-type E1E2” value [4] was 122%, the “binding vs wild-type E1E2” value [5] was 125% and the “binding vs wild-type E1E2” value [6] was 95%. The “binding vs wild-type E1E2” value [7] was 92%, the “binding vs wild-type E1E2” value [8] was 62% and the “binding vs wild-type E1E2” value [9] was 101%. For the same binder, the “binding vs wild-type E1E2” value [10] was 156%, the “binding vs wild-type E1E2” value [11] was 132% and the “binding vs wild-type E1E2” value [12] was 123%. The “binding vs wild-type E1E2” value [13] was 69%, the “binding vs wild-type E1E2” value [14] was 72% and the “binding vs wild-type E1E2” value [15] was 80%. For the same binder, the “binding vs wild-type E1E2” value [16] was 138%, the “binding vs wild-type E1E2” value [17] was 126% and the “binding vs wild-type E1E2” value [18] was 58%. The “binding vs wild-type E1E2” value [19] was 106%, the “binding vs wild-type E1E2” value [20] was 93% and the “binding vs wild-type E1E2” value [21] was 68%. The “% residual binding” value [22] was 74%, the “% residual binding” value [23] was 79% and the “% residual binding” value [24] was 82%. The “% residual binding” value [25] was 72% and the “% residual binding” value [26] was 107%.
